The target in experiment [1] is T1, human IL-18 (human, UniProt Q14116 37-193).
T1 sequence (looked up): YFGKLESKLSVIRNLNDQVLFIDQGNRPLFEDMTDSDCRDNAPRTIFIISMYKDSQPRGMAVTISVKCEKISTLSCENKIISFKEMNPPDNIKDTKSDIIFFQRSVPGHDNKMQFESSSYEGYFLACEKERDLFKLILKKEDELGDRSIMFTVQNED
Put plainly: cell-based or functional assay.

Experiment [2] deals with T1, human IL-18. As to the kind of experiment: BIAcore optical biosensor, 25 C; mAb captured on anti-rat IgG Fc surface, IL-18 injected. How it is done:
(§1) Kinetic data was evaluated using relationships described previously (Karlsson et al, J. Immunol. Meth., 145:229-240 (1991) and which is incorporated by reference in its entirely. The mAb (diluted in HBS buffer, 10 mM HEPES, 150 mM NaCl, 0.01% Tween-20. pH 7.4) was injected over a rabbit anti-mouse IgG Fc or goat anti-rat IgG Fc surface, followed by buffer flow and the RU was recorded. IL-18 (diluted in HBS buffer) was then injected for 180 seconds followed by a buffer flow for 500 seconds and the RU was recorded. The sensor chip surface was regenerated by an injection of 0.1 M phosphoric acid.
Background: Surface plasmon resonance follows binding to a sensor surface in real time, without labels.

For experiment [3], the target named is T1, human IL-18. As to the kind of experiment: BIAcore optical biosensor, 25 C; mAb captured on anti-mouse IgG Fc surface, IL-18 injected. How it is done: as §1

B1: rat monoclonal antibody 2C10 (antibody, IgG1, V domains shown)
VH: EVQLQQSGAELVRPGTSVKLSCKVSGEISTGYYFHFVRRRPGQGLEWIGRIDPEDDSTKYAERFKDRATLTAQTSSNTAYLNLSSLTSEDTATYFCTTWRIYRDSSGRPFYVMDAWGQGASVTVSS
VL: DIQMTQSPASLSASLGETVSIECLASEDIYTYLTWYQQKPGKSPQLLIYGANKLQDGVPSRFSGSGSGTQYSLKISGIQPEDEGDYFCLQGSKFPLTFGSGTKLEIKR
notes: Mab purified from a rat hybridoma, isotype IgG1 kappa; also called mAb 2C10; 2C10 (rat)
By Kd is commonly meant the free concentration of one partner at which half of the binding sites on the other are occupied at equilibrium, for simple one-to-one binding. As to B1, in the experiment with human IL-18 [1], the “Neutralisation IC50” value stood at 0.1 nM. The dissociation constant (Kd) with human IL-18 [2] amounted to 0.039 nM.

B2: rat monoclonal antibody 14B7 (antibody, IgG1, V domains shown)
VH: EVQLQQSGAELVRPGTSVKFSCKVSGDTPTTYYVHFVRQRPGQGLEWIGRIDPEDTSTKYAEKFRNKATFTADPSSNTAYLNLSSLTPEDTATYFCTIMRYHSTYRVYVMDFWGQGTAVTVS
VL: DIQMTQSPASLSASLGETVSIECLASEDIYSYLAWYQQKPGKSPQLLIYATKRLQDGVPSRFSGSGSGTQYSLKISDMQPEDEGDYFCLQNSKFPVTFGSGTKLEIKR
notes: Mab purified from a rat hybridoma, isotype IgG1 kappa; also called mAb 14B7; 14B7 (rat)
Regarding B2, the “Neutralisation IC50” value with human IL-18 [1] is 0.2 nM. In the experiment with human IL-18 [2], this molecule registered a Kd of 0.15 nM.

B3: murine monoclonal antibody 13G9 (antibody, IgG1, V domains shown)
VH: QVTLKESGPGILKPSQTLSLTCSFSGFSLSTSGMGIAWVRQPSGKGLEWLADIWWDDNKYYNPSLESQLTISKDTSRNQVFLTITSVDTADSATYYCARHHYDGSSLLPMDYWGQGTSVTVSS
VL: DVVMTQTPLSLPVSLGDQASISCRSSQSLVHSNGNTYLHWYLQKPGQSPKLLIYKVSNRFSGVPDRFSGSGSGTDFTLKISRVEAEDLGVYFCSQSTHVPPYTFGGGTKLEIKR
notes: Mab purified from a mouse hybridoma, isotype IgG1 kappa; also called mAb 13G9; 13G9 (mouse)
Take B3: the “Neutralisation IC50” value with human IL-18 [1] is 3 nM. In the experiment with human IL-18 [3], this molecule registered a Kd of 12 nM.
